This note sets out measurements from patent US20120328512A1 (BRACCO IMAGING S P A, published 2012).

Sequences and labels used below:
B1: Seq000 (peptide)
peptide: WQPCPWESWTFCWDPGGGK
modifications: N-terminal acetyl (Ac-); C-terminal amide (-NH2); disulfide between the two C* cysteines
notes: also called comparative peptide
B2: Seq017-PL1 (peptide)
peptide: Ac-SGSG[AEEA]WQPCPWESWTFCWDPGGGK-NH2
modifications: disulfide 9-17; not fully specified (residue 24); printed as Ac-SGSGJWQPC*PWESWTFC*WDPGGGK(DSPE-PG4-Glut)-NH2
B3: Seq005-PL1 (peptide)
peptide: Ac-WQPCPAESWTFCWDPGGGK-NH2
modifications: disulfide 4-12; not fully specified (residue 19); printed as Ac-WQPC*PAESWTFC*WDPGGGK(DSPE-PG4-Glut)-NH2
B4: Seq023-PL1 (peptide)
peptide: H-RWQPCPWESWTFCWDPGGGK-NH2
modifications: disulfide 5-13; not fully specified (residue 20); printed as RWQPC*PWESWTFC*WDPGGGK(DSPE-PG4-Glut)-NH2
B5: Seq016-PL1 (peptide)
peptide: Ac-GWQPCPWESWTFCWDPGGGK-NH2
modifications: disulfide 5-13; not fully specified (residue 20); printed as Ac-GWQPC*PWESWTFC*WDPGGGK(DSPE-PG4-Glut)-NH2
B6: Seq024-PL1 (peptide)
peptide: Ac-SGSGSGSGWQPCPWESWTFCWDPGGGK-NH2
modifications: disulfide 12-20; not fully specified (residue 27); printed as Ac-SGSGSGSGWQPC*PWESWTFC*WDPGGGK(DSPE-PG4-Glut)-NH2

Bridge positions count the residues as written; N and C are the ends. Square brackets hold non-standard residues; d marks the D form. * marks the point of attachment. αGalNAc = CC(=O)N[C@@H]1[C@@H](O)[C@@H](O)[C@@H](CO)O[C@@H]1*; Phe(3,4-F2) = N[C@@H](Cc1ccc(F)c(F)c1)C(=O)O; Thf2ca = tetrahydrofuran-2-carboxylic acid; Phe(4-F) = N[C@@H](Cc1ccc(F)cc1)C(=O)O; Cha = N[C@@H](CC1CCCCC1)C(=O)O; AEEA = NCCOCCOCC(=O)O

One experiment has as its target T1, DDE.
T1 chain 1: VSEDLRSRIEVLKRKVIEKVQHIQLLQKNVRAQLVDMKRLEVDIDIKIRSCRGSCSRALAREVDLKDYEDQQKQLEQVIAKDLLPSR
T1 chain 2: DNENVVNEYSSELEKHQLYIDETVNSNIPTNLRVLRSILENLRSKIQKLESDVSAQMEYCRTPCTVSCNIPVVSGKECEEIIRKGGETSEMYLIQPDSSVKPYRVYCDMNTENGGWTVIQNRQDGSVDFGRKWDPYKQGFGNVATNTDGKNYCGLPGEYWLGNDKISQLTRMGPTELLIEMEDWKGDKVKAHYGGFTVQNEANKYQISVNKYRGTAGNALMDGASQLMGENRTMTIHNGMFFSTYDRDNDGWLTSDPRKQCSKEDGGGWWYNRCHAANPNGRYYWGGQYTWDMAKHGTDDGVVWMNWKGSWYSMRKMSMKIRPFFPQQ
T1 chain 3: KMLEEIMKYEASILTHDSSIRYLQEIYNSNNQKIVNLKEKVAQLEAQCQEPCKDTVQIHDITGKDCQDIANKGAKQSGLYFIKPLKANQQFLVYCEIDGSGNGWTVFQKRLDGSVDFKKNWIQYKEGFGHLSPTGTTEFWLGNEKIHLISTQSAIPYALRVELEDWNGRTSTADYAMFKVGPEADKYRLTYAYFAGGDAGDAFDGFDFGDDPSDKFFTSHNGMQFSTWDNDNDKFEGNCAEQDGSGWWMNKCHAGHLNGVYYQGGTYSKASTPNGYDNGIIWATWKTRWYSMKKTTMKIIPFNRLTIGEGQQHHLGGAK
T1 chain 4: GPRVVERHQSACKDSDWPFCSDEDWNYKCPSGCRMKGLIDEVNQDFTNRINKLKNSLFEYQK
T1 chain 5: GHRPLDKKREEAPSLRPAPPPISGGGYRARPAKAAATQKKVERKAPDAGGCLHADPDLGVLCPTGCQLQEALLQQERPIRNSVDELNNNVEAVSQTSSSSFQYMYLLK
T1 chain 6: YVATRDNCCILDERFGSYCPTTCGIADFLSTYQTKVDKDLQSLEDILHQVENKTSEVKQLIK
Nature of the experiment: competition fluorescence polarization on DDE; this is the reference peptide, 1 by definition. A general note: Fluorescence polarisation rises when a labelled molecule tumbles more slowly, as on binding a larger partner.
Consider B1, for which the “Rel IC50” value was 1 ratio to the reference peptide.

In another experiment the target is T2, fibrin (human fibrinogen clotted with human thrombin on glass coverslips) (human, UniProt P02671 36-629; P02675 45-491; P02679 27-437, limits assumed).
T2 construct: also called fibrin-coated coverslips
T2 sequence (looked up) 1: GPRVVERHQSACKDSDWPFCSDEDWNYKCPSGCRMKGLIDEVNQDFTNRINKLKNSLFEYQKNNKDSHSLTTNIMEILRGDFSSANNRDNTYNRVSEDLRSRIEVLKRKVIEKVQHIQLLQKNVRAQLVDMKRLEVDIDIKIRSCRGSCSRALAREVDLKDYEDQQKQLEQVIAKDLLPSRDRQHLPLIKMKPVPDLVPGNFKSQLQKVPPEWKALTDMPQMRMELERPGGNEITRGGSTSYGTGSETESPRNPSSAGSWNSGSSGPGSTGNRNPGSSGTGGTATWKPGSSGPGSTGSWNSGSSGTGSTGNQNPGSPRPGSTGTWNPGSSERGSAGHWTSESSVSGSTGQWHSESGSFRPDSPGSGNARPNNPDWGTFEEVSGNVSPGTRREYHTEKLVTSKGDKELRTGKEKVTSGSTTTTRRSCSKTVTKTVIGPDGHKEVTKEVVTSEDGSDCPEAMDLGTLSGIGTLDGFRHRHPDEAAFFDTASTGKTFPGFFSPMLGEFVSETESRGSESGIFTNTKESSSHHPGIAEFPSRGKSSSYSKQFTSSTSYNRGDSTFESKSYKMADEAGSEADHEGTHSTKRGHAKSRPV
T2 sequence (looked up) 2: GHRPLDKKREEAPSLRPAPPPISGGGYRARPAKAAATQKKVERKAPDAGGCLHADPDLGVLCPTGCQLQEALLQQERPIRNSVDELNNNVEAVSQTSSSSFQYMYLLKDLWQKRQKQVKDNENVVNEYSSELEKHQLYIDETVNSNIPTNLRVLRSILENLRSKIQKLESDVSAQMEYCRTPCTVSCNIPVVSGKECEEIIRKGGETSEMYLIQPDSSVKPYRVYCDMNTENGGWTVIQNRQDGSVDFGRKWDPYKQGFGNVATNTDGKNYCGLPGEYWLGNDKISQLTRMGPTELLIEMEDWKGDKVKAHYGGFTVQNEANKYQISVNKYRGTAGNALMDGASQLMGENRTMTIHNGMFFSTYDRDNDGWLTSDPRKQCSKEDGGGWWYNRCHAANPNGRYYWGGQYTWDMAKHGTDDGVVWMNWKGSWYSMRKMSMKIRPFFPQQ
T2 sequence (looked up) 3: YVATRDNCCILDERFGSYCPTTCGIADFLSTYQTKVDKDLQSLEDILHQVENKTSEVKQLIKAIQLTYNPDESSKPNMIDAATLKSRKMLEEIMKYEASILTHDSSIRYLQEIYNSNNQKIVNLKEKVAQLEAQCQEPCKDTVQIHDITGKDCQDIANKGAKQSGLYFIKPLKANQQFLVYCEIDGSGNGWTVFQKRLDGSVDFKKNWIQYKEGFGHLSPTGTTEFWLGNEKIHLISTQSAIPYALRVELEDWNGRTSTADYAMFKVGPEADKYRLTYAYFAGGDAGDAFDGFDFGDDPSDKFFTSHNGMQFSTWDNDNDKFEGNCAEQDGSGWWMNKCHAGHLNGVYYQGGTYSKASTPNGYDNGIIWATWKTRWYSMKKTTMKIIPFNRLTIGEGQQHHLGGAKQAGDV
As to the kind of experiment: flow chamber test of targeted microvesicles on fibrin-coated coverslips. The method, then: Five mL of a solution of BSA 1% w/v in PBS pH 7.4 were added into a 60 mm Petri Dish containing one coverslip, and incubated at 37° C. for 15 min. Then the coverslip was washed three times with 5 ml of Tween 80/PBS (0.1%, v:v). Twenty five μL of human thrombin solution at 5 U/mL were added per mL of human fibrinogen solution (0.5 mg/mL in 50 mM sodium phosphate, NaCl 280 mM, pH 7.4) and delicately mixed. Five mL of this solution were immediately distributed in each Petri dish. The coverslips were incubated for one hour at 37° C. and then dried overnight at 45° C.
Binding studies of targeted microvesicles were carried out using a parallel-plate flow chamber (FCS2, Bioptech Inc., Butler, Pa., USA) with a chamber gasket of 0.25 mm in thickness, with a customized adapter for upside-down chamber inversion. The coated coverslip was inserted as a plate of the flow chamber. Gas-filled Microvesicles (5×10⁶ bubbles/mL in 50% human plasma in PBS) were drawn through the flow chamber using an adjustable infusion pump (Auto Syringe® AS50 Infusion Pump, Baxter, Deerfield, Ill., USA) with a 60 mL syringe (Terumo). The pump flow rate was adjusted to 1 mL/min to obtain the desired shear rate of about 114 s⁻¹. After 10 minutes, the flow was stopped and pictures were taken randomly on different positions on the coverslip (on surfaces of about 0.025 mm²) using a 40× objective and a CCD monochrome camera (F-View II, Soft Imaging Systems, Germany) connected to an inverted Olympus IX 50 microscope. The number of microvesicles on each picture was determined, averaged with respect to the total number of pictures and the obtained value was then divided by ten (to obtain the “slope”, i.e. the average amount of bound microvesicles per minute).
Regarding B2, the binding result is “binds”.

Consider B3, for which the binding result is “binds”.

Regarding B4, the binding result was “binds”.

B5: the binding result is “binds”.

With Ac-WQPCPAESWTFCWDPGAGSGK-NH2 (disulfide 4-12; not fully specified (residue 21), Linker GAGSGK) [Seq005-PL5], the binding result is recorded as “binds”.

With B6, the binding result is on record as “binds”.

Ac-WQPCPAESWTFCWDPGSAGSK-NH2 (disulfide 4-12; not fully specified (residue 21), Linker GSAGSK) [Seq005-PL4]: the binding result was “binds”.

The target in the next experiment is DDE. As to the kind of experiment: competition fluorescence polarization: unlabeled peptide against Seq000-CF5 tracer on DDE; n = 2.
For the molecule Ac-WQPCPWESWT[Cha]CWDPGGGK-NH2 (disulfide 4-12) [Seq018-P], the Rel IC50 (ratio to the reference peptide) came to 0.494.

As for Ac-WQPCPWESWT[Phe(4-F)]CWDPGGGK-NH2 (disulfide 4-12) [Seq019-P], the Rel IC50 (ratio to the reference peptide) is 0.601.

In the case of Ac-WQPCPWESWT[Phe(3,4-F2)]CWDPGGGK-NH2 (disulfide 4-12) [Seq020-P], the Rel IC50 (ratio to the reference peptide) was 0.428.

Turning to Ac-GWQPCPWESWTFCWDPGGGK-NH2 (disulfide 5-13) [Seq016-P], the Rel IC50 (ratio to the reference peptide) is 1.04.

Turning to H-GWQPCPWESWTFCWDPGGGK-NH2 (disulfide 5-13) [Seq021-P], the Rel IC50 (ratio to the reference peptide) was found to be 0.622.

Take Ac-S(αGalNAc)WQPCPWESWTFCWDPGGGK-NH2 (disulfide 5-13) [Seq027-P]: the Rel IC50 (ratio to the reference peptide) was found to be 0.559.

As to Thf2ca-WQPCPWESWTFCWDPGGGK-NH2 (disulfide 4-12) [Seq028-P], the Rel IC50 (ratio to the reference peptide) was 0.616.
